Assays:
crystal structure = target: the molecule itself; test: crystal structure
[1] = target: T1, Sa2YefM in heterohexamer;Sa2YoeB in heterohexamer (Staphylococcus aureus …, UniProt Q2FVF7;Q2FVF8 1-85;1-88, |); test: ITC
T1 sequence 1: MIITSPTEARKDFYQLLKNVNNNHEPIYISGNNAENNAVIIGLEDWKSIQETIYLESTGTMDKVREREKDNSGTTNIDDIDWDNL
T1 sequence 2: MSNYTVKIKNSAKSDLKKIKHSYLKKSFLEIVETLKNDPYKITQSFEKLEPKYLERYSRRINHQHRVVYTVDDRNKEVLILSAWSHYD

B1: Sa2YefM antitoxin (natural protein)
chain: T1 sequence 1
stoichiometry N (crystal structure): 2

B2: promoter mutant1 (core GTAC mutated) (dsDNA)
DNA 1: TTGACTGCATCAAGTGCTGCAGCTAT
DNA 2: ATAGCTGCAGCACTTGATGCAGTCAA
binding result [1]: no binding

B3: promoter mutant2 (flanking mutated) (dsDNA)
DNA 1: TTGTTGTACAAAAGTTTGTACAATAT
DNA 2: ATATTGTACAAACTTTTGTACAACAA
binding result [1]: no binding

— article PMC8717551 (The Journal of Biological Chemistry, 2021)
